T1: GST-PDZ 2-3 (glutathione S-transferase fused to PTPL1 residues 1340-1579) (Homo sapiens (Human), UniProt Q12923 1359-1598)
T1 construct: not shown: glutathione S-transferase (GST) encoded by the expression vector pGEX1 lambda T (Pharmacia)
T1 sequence: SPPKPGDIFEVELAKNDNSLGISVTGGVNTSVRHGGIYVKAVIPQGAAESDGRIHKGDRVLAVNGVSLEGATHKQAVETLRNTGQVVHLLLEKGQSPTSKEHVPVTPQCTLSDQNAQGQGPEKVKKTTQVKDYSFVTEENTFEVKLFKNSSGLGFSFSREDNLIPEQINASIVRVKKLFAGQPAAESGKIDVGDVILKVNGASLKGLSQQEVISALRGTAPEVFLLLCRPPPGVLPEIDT

T2: GST-PDZ 5 (glutathione S-transferase fused to PTPL1 residues 1856-1960) (Homo sapiens (Human), UniProt Q12923 1875-1979)
T2 construct: not shown: glutathione S-transferase (GST) encoded by the expression vector pGEX1 lambda T (Pharmacia)
T2 sequence: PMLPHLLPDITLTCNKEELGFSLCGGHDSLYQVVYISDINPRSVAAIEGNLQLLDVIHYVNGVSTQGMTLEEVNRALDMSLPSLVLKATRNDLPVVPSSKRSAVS

B1: GST-PDZ 3 (glutathione S-transferase fused to PTPL1 residues 1469-1579) (other)
chain: VKDYSFVTEENTFEVKLFKNSSGLGFSFSREDNLIPEQINASIVRVKKLFAGQPAAESGKIDVGDVILKVNGASLKGLSQQEVISALRGTAPEVFLLLCRPPPGVLPEIDT
notes: not shown: glutathione S-transferase (GST) encoded by the expression vector pGEX1 lambda T (Pharmacia)
B2: GST-PDZ 1 (glutathione S-transferase fused to PTPL1 residues 1066-1166) (other)
chain: SSPEREITLVNLKKDAKYGLGFQIIGGEKMGRLDLGIFISSVAPGGPADFHGCLKPGDRLISVNSVSLEGVSHHAAIEILQNAPEDVTLVISQPKEKISKV
notes: as for B1
B3: PARG (PTPL1 Associated RhoGAP), the 150 kDa component from PC-3 cell lysate (other)
chain: MIAHKQKKTKKKRAWASGQLSTDITTSEMGLKSLSSNSIFDPDYIKELVNDIRKFSHILLYLKEAIFSDCFKEVIHIRLEELLRVLKSIMNKHQNLNSVDLQNAAEMLTAKVKAVNFTEVNEENKNDLFQEVFSSIETLAFTFGNILTNFLMGDVGNDSFLRLPVSRETKSFENVSVESVDSSSEKGNFSPLELDNVLLKNTDSIELALSYAKTWSKYTKNIVSWVEKKLNLELESTRNMVKLAEATRTNIGIQEFMPLQSLFTNALLNDIESSHLLQQTIAALQANKFVQPLLGRKNEMEKQRKEIKELWKQEQNKMLEAENALKKAKLLCMQRQDEYEKAKSSMFRAEEEHLSSSGGLAKNLNKQLEKKRRLEEEALQKVEEADELYKVCVTNVEERRNDVENTKREILAQLRTLVFQCDLTLKAVTVNLFHMQHLQAASLADRLQSLCGSAKLYDPGQEYSEFVKATNSTEEEKVDGNVNKHLNSSQPSGFGPANSLEDVVRLPDSSNKIEEDRCSNSADITGPSFIRSWTFGMFSDSESTGGSSESRSLDSESISPGDFHRKLPRTPSSGTMSSADDLDEREPPSPSETGPNSLGTFKKTLMSKAALTHKFRKLRSPTKCRDCEGIVVFQGVECEECLLVCHRKCLENLVIICGHQKLPGKIHLFGAEFTLVAKKEPDGIPFILKICASEIENRALCLQGIYRVCGNKIKTEKLCLALENGMHLVDISEFSSHDICDVLKLYLRQLPEPFILFRLYKEFIDLAKEIQHVNEEQETKKNSLEDKKWPNMCIEINRILLKSKDLLRQLPASNFNSLHFLIVHLKRVVDHAEENKMNSKNLGVIFGPSLIRPRPQTAPITISSLAEYSNQARLVEFLITYSQKIFDGSLQPQDVMCSIGVVDQGCFPKPLLSPEERDIERSMKSLFFSSKEDIHTSESESKIFERATSFEESERKQNALGKCDACLSDKAQLLLDQEAESASQKIEDGKAPKPLSLKSDRSTNNVERHTPRTKIRPVSLPVDRLLLASPPNERNGRNMGNVNLDKFCKNPAFEGVNRKDAATTVCSKFNGFDQQTLQKIQDKQYEQNSLTAKTTMIMPSALQEKGVTTSLQISGDHSINATQPSKPYAEPVRSVREASERRSSDSYPLAPVRAPRTLQPQHWTTFYKPHAPIISIRGNEEKPASPSAACPPGTDHDPHGLVVKSMPDPDKASACPGQATGQPKEDSEELGLPDVNPMCQRPRLKRMQQFEDLEDEIPQFV
notes: In the pull-down it was the endogenous, 35S-labelled 150 kDa protein in PC-3 cell lysate; also called 150 kDa protein

Assays:
Assay in all cases: GST pull-down from 35S-labelled PC-3 cell lysate, SDS-gel, fluorography
[1] = target: B3
Protocol: (§1) PC-3 cells were obtained from American Type Culture Collection (Rockville, Md.) and cultured as described (Saras et al., 1994). Metabolic labeling of PC-3 cells was performed for 4 h in methionine-and cysteine-free MCDB 104 medium (Gibco/Life Technologies, Gaithersburg, Md.) with […] of ³⁵S-methionine and ³⁵S-cysteine (in vivo labeling mix; Amersham, Arlington Heights, Ill.). After labeling, the cells were solubilized in buffer containing 20 mM Tris-HCI, pH 7.4,150 mM NaCl, 10 mM EDTA, 0.5% Triton X-100, 0.5% deoxycholate, 1 mM dithiothreitol, 1.5% Trasylol (Bayer, Germany) and 1 mM phenylmethylsulfonyl fluoride (Sigma, St. Louis, Mo.). After 15 min on ice, cell debris was removed by centrifugation. Samples (1 ml) were then incubated for 1.5 h at 4° C. with 10 μg of GST-PDZ fusion proteins bound to glutathione-Sepharose 4B beads (Pharmacia). The beads were pelleted and washed four times with solubilization buffer. The protein complexes were eluted by boiling for 5 min in SDS-sample buffer (100 mM Tris-HCI, pH 8.8, 0.01% bromophenol blue, 36% glycerol, 4% SDS, 10 mM dithiothreitol) and analyzed by SDS-gel electrophoresis using 5-12% polyacrylamide gels (Blobel and Dobberstein, J. Cell Biol. 67:835-851, 1975). The gel was fixed, incubated with Amplify (Amersham) for 20 min, dried and subjected to fluorography.

[2] = target: T1, GST-PDZ 2-3 (glutathione S-transferase …)
Protocol: as §1

[3] = target: T2, GST-PDZ 5 (glutathione S-transferase …)
Protocol: as §1

Binder | binding result [1] | binding result [2] | binding result [3]
B1 | no binding (tested: 10 µg of GST-PDZ fusion protein) | – | –
B2 | no binding (tested: 10 µg of GST-PDZ fusion protein) | – | –
B3 | – | no binding (tested: 10 µg of GST-PDZ fusion protein) | no binding (tested: 10 µg of GST-PDZ fusion protein)

From US20030166232A1 (LUDWIG INSTITUTE FOR CANCER RESEARCH, published 2003)
